# Data from article PMC3711744 (The Journal of neuroscience : the official journal of the …, 2013).
# Like-named read-outs stand apart in the source and are kept apart here.
# B1: GST-mGluR1a-CT1(K841-T1000) (domain or fragment, rat, UniProt P23385 841-1000, looked up)
# chain: KPERNVRSAFTTSDVVRMHVGDGKLPCRSNTFLNIFRRKKPGAGNANSNGKSVSWSEPGGRQAPKGQHVWQRLSVHVKTNETACNQTAVIKPLTKSYQGSGKSLTFSDASTKTLYNVEEEDNTPSAHFSPPSSPSMVVHRRGPPVATTPPLPPHLTAEET
# B2: GST-mGluR1a-CT-FL(K841-L1199) (domain or fragment, rat, UniProt P23385 841-1199, looked up)
# chain: KPERNVRSAFTTSDVVRMHVGDGKLPCRSNTFLNIFRRKKPGAGNANSNGKSVSWSEPGGRQAPKGQHVWQRLSVHVKTNETACNQTAVIKPLTKSYQGSGKSLTFSDASTKTLYNVEEEDNTPSAHFSPPSSPSMVVHRRGPPVATTPPLPPHLTAEETPLFLADSVIPKGLPPPLPQQQPQQPPPQQPPQQPKSLMDQLQGVVTNFGSGIPDFHAVLAGPGTPGNSLRSLYPPPPPPQHLQMLPLHLSTFQEESISPPGEDIDDDSERFKLLQEFVYEREGNTEEDELEEEEDLPTASKLTPEDSPALTPPSPFRDSVASGSSVPSSPVSESVLCTPPNVTYASVILRDYKQSSSTL
# B3: purified mGluR1a-CT (domain or fragment, rat, UniProt P23385 841-1199, looked up)
# chain: B2 chain
# Tests used:
# Assay in all cases: pull-down
# [1] = target: T286-autophosphorylated CaMKIIα (UniProt P11275 1-478, phosphothreonine at 286 (autophosphorylation))
# Chain of T286-autophosphorylated CaMKIIα (P11275 whole entry): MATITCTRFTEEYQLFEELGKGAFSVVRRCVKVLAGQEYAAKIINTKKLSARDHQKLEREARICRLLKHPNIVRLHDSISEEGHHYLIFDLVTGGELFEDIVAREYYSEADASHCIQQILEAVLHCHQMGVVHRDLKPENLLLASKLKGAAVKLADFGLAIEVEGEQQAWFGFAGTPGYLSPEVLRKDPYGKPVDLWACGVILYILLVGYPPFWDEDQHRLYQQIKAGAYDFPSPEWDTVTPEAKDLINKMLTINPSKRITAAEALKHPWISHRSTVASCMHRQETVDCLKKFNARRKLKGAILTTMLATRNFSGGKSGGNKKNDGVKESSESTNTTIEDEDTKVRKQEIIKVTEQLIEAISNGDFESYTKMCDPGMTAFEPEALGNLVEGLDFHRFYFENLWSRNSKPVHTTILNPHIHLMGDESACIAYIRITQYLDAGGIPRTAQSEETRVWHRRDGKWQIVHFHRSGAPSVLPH
# [2] = target: T1, His-tagged CaMKIIα-FL(M1-H478) (UniProt P11275 1-478)
# T1 sequence (P11275 whole entry): as above
# [3] = target: T1, His-tagged CaMKIIα-FL(M1-H478); remark: listed apart in the source
# GST-CaMKIIα-FL(M1-H478) = GST-CaMKIIα-FL(M1-H478) (UniProt P11275 1-478)
# Chain of GST-CaMKIIα-FL(M1-H478) (P11275 whole entry): as above
Binder,binding result [2],binding result [3],further results
B1,binds,,binding result [1]: binds
B2,,binds,
B3,,,binding result (GST-CaMKIIα-FL(M1-H478)): binds
"KPERNVRSAFTTSDVVRMHVGDGKLPCRSNTFLNIFRRKKPGAGN (domain or fragment, rat, UniProt P23385 841-885, looked up) [GST-mGluR1a-CT1a(K841-N885)]",,binds,
KLPCRSNTFLNIFR [mGluR1a-i (14-amino acid interfering peptide)],binds,,
